T1: recombinant human herpes virus entry mediator (HVEM) (human, UniProt Q92956 39-202)
T1 construct: neither construct is described; also called human HVEM; recombinant human HVEM protein (R&D systems)
T1 sequence (looked up): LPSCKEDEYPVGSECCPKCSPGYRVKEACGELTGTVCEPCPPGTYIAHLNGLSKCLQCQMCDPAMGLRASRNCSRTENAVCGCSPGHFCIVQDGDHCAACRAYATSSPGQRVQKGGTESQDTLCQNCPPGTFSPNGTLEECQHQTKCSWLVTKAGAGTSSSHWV

T2: human DcR3 (human, UniProt O95407 30-300)
T2 construct: also called LIGHT receptor DcR3
T2 sequence (looked up): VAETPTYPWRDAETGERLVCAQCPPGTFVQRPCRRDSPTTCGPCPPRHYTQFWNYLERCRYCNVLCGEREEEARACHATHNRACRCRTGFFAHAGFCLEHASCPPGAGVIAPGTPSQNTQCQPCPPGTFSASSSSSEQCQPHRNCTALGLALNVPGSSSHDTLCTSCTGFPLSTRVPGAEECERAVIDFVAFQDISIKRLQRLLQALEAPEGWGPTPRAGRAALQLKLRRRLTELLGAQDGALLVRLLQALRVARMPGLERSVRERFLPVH

T3: recombinant human FAP (human, UniProt Q12884 26-760)
T3 construct: also called rhFAP
T3 sequence (looked up): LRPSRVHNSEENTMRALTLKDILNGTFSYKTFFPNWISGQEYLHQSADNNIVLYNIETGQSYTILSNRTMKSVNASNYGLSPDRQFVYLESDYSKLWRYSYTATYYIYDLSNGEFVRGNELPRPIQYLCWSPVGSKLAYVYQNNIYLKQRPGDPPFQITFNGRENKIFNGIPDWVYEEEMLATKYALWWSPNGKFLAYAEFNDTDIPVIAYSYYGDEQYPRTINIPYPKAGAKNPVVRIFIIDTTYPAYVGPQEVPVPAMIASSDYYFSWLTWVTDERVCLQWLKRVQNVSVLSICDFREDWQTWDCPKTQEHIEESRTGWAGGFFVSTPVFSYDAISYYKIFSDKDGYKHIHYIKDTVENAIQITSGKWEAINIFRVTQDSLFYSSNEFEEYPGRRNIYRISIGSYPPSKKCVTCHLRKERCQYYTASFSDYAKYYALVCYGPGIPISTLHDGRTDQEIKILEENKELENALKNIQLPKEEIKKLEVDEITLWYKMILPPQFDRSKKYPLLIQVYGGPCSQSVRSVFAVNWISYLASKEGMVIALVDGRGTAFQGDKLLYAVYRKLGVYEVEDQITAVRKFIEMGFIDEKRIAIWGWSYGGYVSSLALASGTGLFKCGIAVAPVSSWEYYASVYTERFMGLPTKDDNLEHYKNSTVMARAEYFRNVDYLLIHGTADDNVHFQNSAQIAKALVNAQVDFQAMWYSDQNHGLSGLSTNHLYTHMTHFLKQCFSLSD


How the values were obtained:
[1] = biological target: T4, human LTβR on A375 cells (human, UniProt P36941 31-435); assay: cell-based or functional assay
T4 sequence (P36941 31-435): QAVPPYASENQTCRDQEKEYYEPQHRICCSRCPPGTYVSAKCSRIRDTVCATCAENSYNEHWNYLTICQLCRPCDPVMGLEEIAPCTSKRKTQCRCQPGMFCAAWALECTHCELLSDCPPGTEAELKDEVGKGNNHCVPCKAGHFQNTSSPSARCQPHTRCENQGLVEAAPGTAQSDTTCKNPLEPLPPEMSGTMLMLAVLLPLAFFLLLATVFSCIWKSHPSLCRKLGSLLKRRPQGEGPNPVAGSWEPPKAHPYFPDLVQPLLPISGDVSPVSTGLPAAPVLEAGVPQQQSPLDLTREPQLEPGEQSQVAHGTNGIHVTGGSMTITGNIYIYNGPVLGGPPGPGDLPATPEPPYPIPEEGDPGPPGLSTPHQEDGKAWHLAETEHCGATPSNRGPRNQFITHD

[2] = biological target: T4, human LTβR on A375 cells; assay: flow cytometry on A375 cells, serial dilution from 500 nM, anti-human IgG detection
Protocol: (§1) Specifically, the A375 cell line was prepared by suspending in a FACS buffer solution at 1×10⁵ cells/100 μL, and treated with 100 μL each of T3.01, T3.07, T3.04, and T3.18 prepared by suspending at 500 nM and diluting by serial dilution. The cells were washed twice with a FACS buffer solution. The cells were stained with an anti-human IgG antibody (Biolegend). The expression ratio of the stained cells was measured using BD LSR and analyzed using FlowJo software.

[3] = biological target: T5, recombinant human lymphotoxin beta receptor (LTβR) (human, UniProt P36941 28-227, limits assumed); assay: SPR, human LTβR immobilised on CM5, fusion protein as analyte, 1:1 binding model
T5 construct: neither construct is described; also called human LTβR; recombinant human LTβR protein
T5 sequence (P36941 28-227 limits assumed): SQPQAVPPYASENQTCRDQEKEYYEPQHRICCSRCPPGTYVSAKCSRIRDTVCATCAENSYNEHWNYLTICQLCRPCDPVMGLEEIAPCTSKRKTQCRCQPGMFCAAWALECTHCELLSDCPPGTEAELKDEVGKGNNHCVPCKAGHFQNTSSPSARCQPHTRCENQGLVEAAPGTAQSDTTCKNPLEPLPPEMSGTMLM
Protocol: Specifically, the surface of the CM5 chip was activated with a 1:1 mixture of […], and 5 μg/mL of human LTβR was immobilized for 60 seconds at a rate of 10 μL/min. The remaining active ester groups were blocked with 1 M ethanolamine. […] The diluted fusion proteins were reacted at a rate of 30 μL/min. The association and dissociation times were 180 seconds and 400 seconds, respectively. After the dissociation step, stabilization was performed for 60 seconds, and then the regeneration step was performed for 30 seconds with a 10 mM glycine pH 1.5 solution at a rate of 30 μL/min.

[4] = biological target: T1, recombinant human herpes virus entry …; assay: SPR, human HVEM immobilised on CM5, fusion protein as analyte, 1:1 binding model
Protocol: (§2) Specifically, the surface of the CM5 chip was activated with a 1:1 mixture of […], and 5 to 6 μg/mL of human HVEM was immobilized for 60 seconds at a rate of 10 μL/min. The remaining active ester groups were blocked with 1 M ethanolamine. T3.01, T3.07, T3.09, T3.14, and T3.18 were each diluted to 100 nM in 1×HBS-EP+buffer solution and diluted by serial dilution. The diluted fusion proteins were reacted at a rate of 30 μL/min. The association and dissociation times were 180 seconds and 400 seconds, respectively. After the dissociation step, stabilization was performed for 60 seconds, and then the regeneration step was performed for 30 seconds with a 10 mM glycine pH 1.5 solution at a rate of 30 μL/min.

[5] = biological target: T2, human DcR3; assay: SPR, human DcR3 immobilised on CM5, fusion protein as analyte, 1:1 binding model
Protocol: as §2, with “DcR3” for “HVEM”, “50 nM or 200” for “100”

[6] = biological target: T3, recombinant human FAP; assay: SPR, fusion protein captured by anti-human IgG (Fc) on CM5, recombinant human FAP as analyte, 1:1 binding model
Protocol: Specifically, the surface of the CM5 chip was activated with a 1:1 mixture of […] NHS (N-hydroxysuccinimide) and 200 nM EDC (1-ethyl-3-(3-dimethylaminopropyl)carbodiimide), and 20 μg/mL of anti-human IgG (Fc) antibody was immobilized for 400 seconds at a rate of 10 μL/min. The remaining active ester groups were blocked with 1 M ethanolamine. T3.01, T3.07, and T3.14 were diluted to 2 μg/mL, 1 μg/mL, and 2 μg/mL, respectively, and reacted on the CM5 chip immobilized with the anti-human IgG (Fc) antibody. The recombinant human FAP was diluted to 50 nM or 100 nM in 1×HBS-EP+buffer solution and diluted by serial dilution. The diluted recombinant human FAP was reacted at a rate of 30 μL/min. The association and dissociation times were 180 seconds and 400 seconds, respectively. After the dissociation step, stabilization was performed for 60 seconds, and then the regeneration step was performed for 30 seconds with a 10 mM glycine pH 1.5 solution at a rate of 30 μL/min.

[7] = biological target: T4, human LTβR on A375 cells; assay: flow cytometry on A375 cells, serial dilutions, anti-human IgG detection, MFI against TMEkine [nM]
Protocol: as §1

[8] = biological target: T1, recombinant human herpes virus entry …; assay: sandwich ELISA: plate coated with recombinant human HVEM 1 ug/mL, fusion protein from 1 nM in serial dilution, detected with biotinylated recombinant human FAP and streptavidin conjugate, OD 450 nm
Protocol: Considering that LIGHT of the fusion protein must bind to the herpes virus entry mediator (HVEM) for the action, it was confirmed that T3.01 binds to the recombinant human HVEM, as follows: [0370] (i) The recombinant human HVEM protein (R&D systems) was suspended at 1 μg/mL, dispensed in a 96-well immune plate, and treated for 24 hours. [0371] (ii) The wells were washed with a wash solution, and then blocking was performed for 1 hour with 1% BSA (bovine serum albumin, Sigma) solution. [0372] (iii) The wells were washed with a wash solution, and then T3.01, T3.14, T3.16, T3.17, T3.18 and T3.10, or T3.05, T3.06, T3.04, T3.14 and T3.10 were suspended at 1 nM and diluted by serial dilution. The wells were treated with the diluted T3.01, T3.14, T3.16, T3.17, T3.18 and T3.10, or T3.05, T3.06, T3.04, T3.14 and T3.10 for 2 hours. [0373] (iv) The wells were washed with a wash solution, and then treated with the human recombinant FAP-biotin diluted at 0.5 μg/mL for 2 hours. [0374] (v) The wells were washed with a wash solution, and then treated with streptavidin-RP for 20 minutes. [0375] (vi) The wells were washed with a wash solution, and then treated with a substrate solution for 20 minutes. [0376] (vii) The wells were treated with a stop solution, and the absorbance was measured at 450 nm.

| Binder | IL-8 secretion of A375 cells, EC50 (FIG. 15b) [1] [nM] | percent of cells bound [2] [%] | Kd [3] [nM] | koff [3] [s⁻¹] | kon [3] [M⁻¹ s⁻¹] | Kd [4] [nM] | koff [4] [s⁻¹] | kon [4] [M⁻¹ s⁻¹] | Kd [5] [nM] | koff [5] [s⁻¹] | kon [5] [M⁻¹ s⁻¹] | Kd [6] [nM] | koff [6] [s⁻¹] | kon [6] [M⁻¹ s⁻¹] | IL-8 secretion of A375 cells, EC50 (FIG. 15a) [1] [nM] | EC50 (read off the curve) [7] [nM] | binding result [8] |
| --- | --- | --- | --- | --- | --- | --- | --- | --- | --- | --- | --- | --- | --- | --- | --- | --- | --- |
| T3.07 (anti-hu FAP-hu scLIGHT2/anti-hu FAP-hu LIGHT, hu IgG1 DANG (2 + 1)) (bispecific antibody, Knob-into-hole; two anti-FAP arms, LIGHT dimer and LIGHT monomer at the C-termini of the two heavy chains; two copies of the light chain follow from the (2 + 1) format) heavy 1: QVQLVQSGAEVKKPGASVKVSCKTSRYTFTEYTIHWVRQAPGQRLEWIGGINPNNGIPNYNQKFKGRVTITVDTSASTAYMELSSLRSEDTAVYYCARRRIAYGYDEGHAMDYWGQGTLVTVSSASTKGPSVFPLAPSSKSTSGGTAALGCLVKDYFPEPVTVSWNSGALTSGVHTFPAVLQSSGLYSLSSVVTVPSSSLGTQTYICNVNHKPSNTKVDKKVEPKSCDKTHTCPPCPAPELLGGPSVFLFPPKPKDTLMISRTPEVTCVVVAVSHEDPEVKFNWYVDGVEVHNAKTKPREEQYGSTYRVVSVLTVLHQDWLNGKEYKCKVSNKALPAPIEKTISKAKGQPREPQVYTLPPSRDELTKNQVSLWCLVKGFYPSDIAVEWESNGQPENNYKTTPPVLDSDGSFFLYSKLTVDKSRWQQGNVFSCSVMHEALHNHYTQKSLSLSPGKGGGGSGGGGSEVNPAAHLTGANSSLTGSGGPLLWETQLGLAFLRGLSYHDGALVVTKAGYYYIYSKVQLGGVGCPLGLASTITHGLYKRTPRYPEELELLVSQQSPCGRATSSSRVWWDSSFLGGVVHLEAGEKVVVRVLDERLVRLRDGTRSYFGAFMVGGSGEVNPAAHLTGANSSLTGSGGPLLWETQLGLAFLRGLSYHDGALVVTKAGYYYIYSKVQLGGVGCPLGLASTITHGLYKRTPRYPEELELLVSQQSPCGRATSSSRVWWDSSFLGGVVHLEAGEKVVVRVLDERLVRLRDGTRSYFGAFMV heavy 2: not shown light: not shown | 0.0477 | ≥ 96 | 0.935 | 0.000382 | 409000 | 3.99 | 0.00114 | 285000 | 0.598 | 0.000195 | 327000 | 0.303 | 0.000118 | 391000 | – | – | – |
| T3.04 (anti-hu FAP/hu scLIGHT3(GGGGS4), hu IgG1 DANG) (bispecific antibody, Knob-into-hole; LIGHT homotrimer with (GGGGS)4 linkers) heavy: QVQLVQSGAEVKKPGASVKVSCKTSRYTFTEYTIHWVRQAPGQRLEWIGGINPNNGIPNYNQKFKGRVTITVDTSASTAYMELSSLRSEDTAVYYCARRRIAYGYDEGHAMDYWGQGTLVTVSSASTKGPSVFPLAPSSKSTSGGTAALGCLVKDYFPEPVTVSWNSGALTSGVHTFPAVLQSSGLYSLSSVVTVPSSSLGTQTYICNVNHKPSNTKVDKKVEPKSCDKTHTCPPCPAPELLGGPSVFLFPPKPKDTLMISRTPEVTCVVVAVSHEDPEVKFNWYVDGVEVHNAKTKPREEQYGSTYRVVSVLTVLHQDWLNGKEYKCKVSNKALPAPIEKTISKAKGQPREPQVYTLPPSRDELTKNQVSLWCLVKGFYPSDIAVEWESNGQPENNYKTTPPVLDSDGSFFLYSKLTVDKSRWQQGNVFSCSVMHEALHNHYTQKSLSLSPGK light: not shown not shown | – | ≥ 96 | – | – | – | – | – | – | – | – | – | – | – | – | 0.0604 | ~4 | binds |

— patent US20250368754A1 (KANAPH THERAPEUTICS, published 2025)
